# Measured values taken from US20200123499A1 (MIT, published 2020).
# T1: DPY-22 PQ-rich domain (C. elegans, UniProt Q20497 2142-3498, limits assumed)
# T1 construct: domain: PQ-rich domain; Expressed in yeast from a Clontech two-hybrid bait or prey plasmid, so fused to a Gal4 BD or AD; also called C-terminal PQ-rich domain of DPY-22; MED12/DPY22
# T1 sequence (looked up): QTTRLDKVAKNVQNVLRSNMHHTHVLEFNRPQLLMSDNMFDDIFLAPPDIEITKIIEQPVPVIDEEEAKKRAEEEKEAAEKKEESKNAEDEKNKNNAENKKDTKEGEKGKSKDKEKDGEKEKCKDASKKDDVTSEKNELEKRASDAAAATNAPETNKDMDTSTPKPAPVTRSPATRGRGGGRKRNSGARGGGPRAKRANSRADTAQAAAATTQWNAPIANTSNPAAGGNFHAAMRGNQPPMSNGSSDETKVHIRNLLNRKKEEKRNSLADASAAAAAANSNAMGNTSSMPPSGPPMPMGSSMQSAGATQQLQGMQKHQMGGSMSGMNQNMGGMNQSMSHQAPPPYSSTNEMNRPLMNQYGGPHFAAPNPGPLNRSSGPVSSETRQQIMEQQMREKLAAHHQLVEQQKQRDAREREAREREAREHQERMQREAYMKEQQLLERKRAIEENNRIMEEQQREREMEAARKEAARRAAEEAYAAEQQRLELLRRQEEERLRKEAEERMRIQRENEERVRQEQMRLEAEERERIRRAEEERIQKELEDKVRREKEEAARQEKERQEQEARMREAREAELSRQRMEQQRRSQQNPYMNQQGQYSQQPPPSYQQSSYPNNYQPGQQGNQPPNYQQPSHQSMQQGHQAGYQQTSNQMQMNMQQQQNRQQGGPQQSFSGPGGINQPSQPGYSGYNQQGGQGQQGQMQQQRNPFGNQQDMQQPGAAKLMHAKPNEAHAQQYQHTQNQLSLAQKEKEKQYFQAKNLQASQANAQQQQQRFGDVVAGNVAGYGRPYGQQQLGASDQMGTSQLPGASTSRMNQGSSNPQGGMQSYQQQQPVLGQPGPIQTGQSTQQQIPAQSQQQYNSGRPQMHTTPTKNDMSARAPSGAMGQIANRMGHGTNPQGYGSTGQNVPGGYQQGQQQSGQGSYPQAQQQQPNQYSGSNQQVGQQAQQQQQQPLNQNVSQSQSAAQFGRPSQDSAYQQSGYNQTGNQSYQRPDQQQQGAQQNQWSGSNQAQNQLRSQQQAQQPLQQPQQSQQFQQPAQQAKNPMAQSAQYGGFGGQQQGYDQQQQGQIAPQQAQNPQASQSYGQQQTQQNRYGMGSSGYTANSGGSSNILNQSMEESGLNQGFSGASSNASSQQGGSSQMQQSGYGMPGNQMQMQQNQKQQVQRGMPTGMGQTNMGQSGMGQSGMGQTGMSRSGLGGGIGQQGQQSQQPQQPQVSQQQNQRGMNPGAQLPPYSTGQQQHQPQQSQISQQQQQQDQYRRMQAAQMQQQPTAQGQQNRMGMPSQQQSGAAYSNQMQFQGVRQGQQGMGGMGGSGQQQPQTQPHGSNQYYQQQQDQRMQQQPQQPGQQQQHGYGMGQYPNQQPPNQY
# B1: HLH-3 (other)
# chain: MTASTSSTPSTSTKIPSSSKSSVTKQTKQKRNERERKRVDQVNQGFVLLQERVPKAAGNKAKLSKVETLREAARYIQELQKQLGMSSTSFHNSMPADFPTPEQSPVYPQSVCSMMAQTPSPSYTSPYYPPPQMMSSNQHDMSSHYYQESSSSSASTSGDHHSFYSHTETY
# notes: Yeast two-hybrid fusion (Gal4 BD or AD); also called ASCL1/HLH3; C. elegans homolog of Ascl1/Mash1
# Molecular target: T1, DPY-22 PQ-rich domain
# Assay: yeast two-hybrid
# Procedure: The yeast two-hybrid assay was performed following the manufacturer's protocol (Clontech). Briefly, fresh Yeast Gold colonies (<1 week old) were cultured in YPD liquid medium at 30° C. to the O.D.600 of 0.5, harvested, washed, and resuspended in 1.1×TE/LiAc. 100 ng of bait and prey plasmids were mixed with […] of denatured salmon sperm carrier DNA and were transformed into competent yeast cells in the presence of 1×PEG/LiAc. The cell mix was then plated on both -Leu-Trp and -Leu-Trp-His-Ade dropout plates and was allowed to grow and 30° C. for 2-3 days. Single colonies that grew on the double and quadruple dropout plates were resuspended in H2O and respotted to fresh dropout plates, which were grown at 30° C. for 2 days. Images of the respotted plates were captured using a Canon Powershot A590 digital camera (Canon) and processed by Photoshop CS4 software (Adobe).
# Two let-19 alleles contain missense mutations, and all five of the dpy-22 alleles contain nonsense mutations that truncate the C-terminal PQ-rich domain (FIG. 3C). In vertebrates, Med12 interacts with transcription factors through the PQ-rich domain to promote gene expression and tissue development (37-41). To determine if Mediator might specifically promote I4 neurogenesis by interacting with bHLH proneural factors, we performed a yeast two-hybrid assay. […]
binder,measurement,value
B1,binding result,no binding
